These results are taken from patent US12365710B2, “HMGB1 protein derivatives for the removal of biofilms” (RESEARCH INSTITUTE AT NATIONWIDE CHILDREN'S HOSPITAL, priority 2018, dated 2025).

Assay [1] deals with Klebsiella pneumoniae biofilms. Briefly: in vitro disruption of pre-formed biofilms, LIVE/DEAD, CLSM and COMSTAT. Type of assay: cell-based. To be noted: for disruption of established K. pneumoniae biofilms (average thickness, biomass): 200 nM added at 24 h, 16 h incubation; for % reduction in average thickness (AT), mean±SE / % reduction in biomass (BM), mean±SE: 200 nM added to pre-formed biofilms at 24 h, read at 40 h, vs untreated KP biofilms. The protocol: (§1) FIGS. 5A-5E: Anti-biofilm effect of HMGB1 variants on high priority bacterial pathogens. Indicated HMGB1 variants or antibodies against DNABII proteins (α-1HFEc 1gG, 1 μM) were added at 24 h to the respective preformed bacterial biofilms, in vitro. After 16 h of Incubation, biofilms were stained with LIVE/DEAD®, then visualized via confocal laser scanning microscopy. Images were analyzed by COMSTAT to calculate average thickness and comparison to control was plotted. (FIG. 5A) Full-length HMGB1 isoforms (200 nM unless otherwise indicated) added to UPEC, B. cenocepacia, NTHI, or ESKAPE pathogens. 800 nM rHMGB1 and 200 nM mHMGB1 were added for S. aureus (ESKAPE). 800 nM rHMGB1, 800 nM mHMGB1, or 3.3 μM of α-1HFEc 1gG were added for E. faecium (ESKAPE) and were incubated for 1 h as opposed to 16 h to avoid potential degradation by E. faecium proteases. (FIG. 5B) Representative images of UPEC biofilms incubated with increasing concentrations of rHMGB1. (FIG. 5C) Individual domains of HMGB1 (200 nM) were tested for anti-biofilm activity as above (dotted line indicates control values). Bars represent the SEM. Statistical significance compared to control was assessed with unpaired t-tests, *P<0.05. […] (FIGS. 5D-5E) HMGB1 and variants disrupt preformed Klebsiella pneumoniae biofilms. rHMGB1, HMGB1 C45S (mHMGB1), bovine HMGB1 (bHMGB1), B box, B Box C106S (mB Box), A Box, and A+B Box were added (200 nM) at 24 h to preformed K. pneumoniae biofilms. After 16 h of incubation, biofilms were stained with LIVE/DEAD®, then visualized via confocal laser scanning microscopy. Images were analyzed by COMSTAT to calculate average thickness and total biomass. Error bars represent the SEM. ***P<0.0001; ns=not significant.
An in vitro biofilm assay was used to test the effect of HMGB1 and its variants on established bacterial biofilms. Applicant expressed, (in E. coli) and purified >95% human recombinant full length HMGB1 (rHMGB1; 1-215), a C45S mutated variant (mHMGB1) and the HMGB1 domains A Box (1-89), A+B Boxes (1-176), B Box (80-179), and B Box C106S (mB Box) (FIG. 3). […] To evaluate the effect of HMGB1 and its variants as well as a commercially available native bovine HMGB1 (used as a control) on established bacterial biofilms, each protein was added (at 200 nM), to pre-formed Klebsiella pneumoniae biofilms after 24 h of growth. After a 16 h incubation (40 h total biofilm growth), the biofilms were stained with LIVE/DEAD® and analyzed using confocal laser scanning microscopy (CLSM) and COMSTAT analysis to calculate the average thickness and total biomass of the biofilms. […] The results of this study lead to a noteworthy observation that a single dose of these non-antimicrobial compounds was able to disrupt recalcitrant biofilms. In addition, the HMGB1 variants have disrupted every bacterial species tested to date, which includes Uropathogenic E. coli, Burkholderia cenocepacia, Nontypeable Haemophilus influenzae (FIG. 6). A single dose at this concentration released of bacteria from their protective shield makes them vulnerable to clearance by antibiotics and the immune system.
Klebsiella pneumoniae (KP), a common cause of nosocomial infections was used for all BBs disruption assays. Human recombinant full length HMGB1 (rHMGB1; 1-215), a C45S mutation variant (mHMGB1) and the HMGB1 domains A Box (1-89), B Box (90-176), AB Boxes (1-176), B-linker Box (80-179), and B-linker Box C106S were expressed (in E. coli) and purified to >95%. To evaluate the effect of rHMGB1 and the various domains on established BBs, each protein species (200 nM) was added to pre-formed BBs at 24 h. At 40 h the BBs were washed, stained with LIVE/DEAD®, visualized via confocal laser scanning microscopy and images were analyzed by COMSTAT to calculate average thickness and biomass.

The subject of assay [2] is UPEC biofilm. In words: in vitro disruption of established biofilms, CLSM and COMSTAT. To be noted: added at 24 h, 16 h exposure; 200 nM unless stated. Type of assay: cell-based, Uropathogenic E. coli. The protocol:
as §1
(§2) HMGB1 disrupts pathogenic biofilms: To test the effect of HMGB1 on bacterial biofilms (FIG. 5), Applicant cloned (IMPACT®, NEB Ipswich, MA), expressed (in E. coli), and purified (heparin sepharose chromatography to >95% purity) tagless human recombinant HMGB1 (rHMGB1) and an engineered C45 S variant (mHMGB1) that mimics the reduced form of HMGB1. rHMGB1 readily forms an intramolecular disulfide bond between C23 and C45 that contributes to pro-inflammatory activity whereas mHMGB1 cannot. These HMGB1 isoforms were evaluated for ability to disrupt established biofilms (formed for 24 h prior to addition). After a 16 h exposure to a single dose of rHMGB1 (200 nM; ˜25-fold greater than typical sepsis serum concentration, but not able to directly induce sepsis), biofilms formed by a wide variety of high priority species were stained with LIVE/DEAD®, analyzed using confocal laser scanning microscopy (CLSM) and COMSTAT analysis and compared to control biofilms. […] Preliminary analysis of PTMs by LC-MS/MS analysis (MS Bioworks, LLC Ann Arbor, MI) indicated minimal modification of both rHMGB1 and nHMGB1 (<20% of the observed peptides had any given PTM, FIG. 1C). […] Thus, while there are intrinsic differences in sensitivity among pathogens, the biofilms formed by all of the tested high priority pathogens were susceptible to a single dose of these non-antimicrobial compounds.
HMGB1 domain structure and anti-biofilm activity: Applicant then produced recombinant HMGB1 truncation variants, of 1) the A Box, a self-contained DNA-binding domain (residues 1-89); 2) an A-B Boxes construct (lacks the C tail; residues 1-185); and 3) the B Box (residues 80 to 176, FIGS. 1A and 1C). […] Since only the B Box can modulate DNA bending, without being bound by theory, it was hypothesized that HMGB1 disrupts biofilms at least in part via DNA-binding/bending. As the B Box is reported to contain pro-inflammatory activity, mediated primarily through interactions with TLR4-MD2 that are dependent on residue C106, Applicant created a modified B Box variant (mB Box) with a C106S mutation (FIGS. 1A and 1C).

Assay [3] has as its system B. cenocepacia biofilm. In kind it is cell-based, Burkholderia cenocepacia. To be noted: 200 nM added at 24 h, 16 h exposure.
Experimental: Indicated HMGB1 variants or antibodies against DNABII proteins (α-1HFEc 1gG, 1 μM) were added at 24 h to the respective preformed bacterial biofilms, in vitro. After 16 h of Incubation, biofilms were stained with LIVE/DEAD®, then visualized via confocal laser scanning microscopy. Images were analyzed by COMSTAT to calculate average thickness and comparison to control was plotted. (FIG. 5A) Full-length HMGB1 isoforms (200 nM unless otherwise indicated) added to UPEC, B. cenocepacia, NTHI, or ESKAPE pathogens. 800 nM rHMGB1 and 200 nM mHMGB1 were added for S. aureus (ESKAPE). 800 nM rHMGB1, 800 nM mHMGB1, or 3.3 μM of α-1HFEc 1gG were added for E. faecium (ESKAPE) and were incubated for 1 h as opposed to 16 h to avoid potential degradation by E. faecium proteases. […] (FIG. 5C) Individual domains of HMGB1 (200 nM) were tested for anti-biofilm activity as above (dotted line indicates control values). Bars represent the SEM. Statistical significance compared to control was assessed with unpaired t-tests, *P<0.05. […] After 16 h of incubation, biofilms were stained with LIVE/DEAD®, then visualized via confocal laser scanning microscopy. Images were analyzed by COMSTAT to calculate average thickness and total biomass. Error bars represent the SEM. ***P<0.0001; ns=not significant.
The subject of assay [4] is NTHI biofilm. In words: in vitro disruption of established biofilms, CLSM and COMSTAT. In kind it is cell-based, Nontypeable Haemophilus influenzae. The note with it: 200 nM added at 24 h, 16 h exposure. The protocol:
as §1, §2
HMGB1 domain structure and anti-biofilm activity: Applicant then produced recombinant HMGB1 truncation variants, of 1) the A Box, a self-contained DNA-binding domain (residues 1-89); 2) an A-B Boxes construct (lacks the C tail; residues 1-185); and 3) the B Box (residues 80 to 176, FIGS. 1A and 1C). […]

B1: nHMGB1: native HMGB1 purified from calf thymus (Chondrex, Inc), commercially available, used as a control (protein, UniProt P10103 2-215, looked up)
High mobility group protein B1: GKGDPKKPRGKMSSYAFFVQTCREEHKKKHPDASVNFSEFSKKCSERWKTMSAKEKGKFEDMAKADKARYEREMKTYIPPKGETKKKFKDPNAPKRPPSAFFLFCSEYRPKIKGEHPGLSIGDVAKKLGEMWNNTAADDKQPYEKKAAKLKEKYEKDIAAYRAKGKPDAAKKGVVKAEKSKKKKEEEEDEEDEEDEEEEEDEEDEEEEEDDDDE
As for B1, in assay [1], the “disruption of established K. pneumoniae biofilms (average thickness, biomass)” value (“disruption … (average thickness, biomass)” for short) is “equivalently disrupted”. Also, the “disruption of established UPEC biofilms” value in assay [2] was “equivalently disrupted”. Besides, in assay [3], the “disruption of established Bc biofilms” value is listed as “equivalently disrupted”. The “disruption of established NTHI biofilms” value in assay [4] is listed as “equivalently disrupted”.

B2: B-Box: HMGB1 domain B Box (90-176), listed beside B-linker Box in Experiment No. 1 (protein, UniProt P09429 90-176, looked up, fragment)
chain: KDPNAPKRPPSAFFLFCSEYRPKIKGEHPGLSIGDVAKKLGEMWNNTAADDKQPYEKKAAKLKEKYEKDIAAYRAKGKPDAAKKGVV
Consider B2, for which, in assay [1], the “% reduction in average thickness (AT), mean±SE” value is listed as 63%±0.1 and the “% reduction in biomass (BM), mean±SE” value is 68%±0.02.

B3: AB Boxes: HMGB1 A and B domains (1-176), lacks the C tail (protein, UniProt P09429 1-176, looked up, fragment)
chain: MGKGDPKKPRGKMSSYAFFVQTCREEHKKKHPDASVNFSEFSKKCSERWKTMSAKEKGKFEDMAKADKARYEREMKTYIPPKGETKKKFKDPNAPKRPPSAFFLFCSEYRPKIKGEHPGLSIGDVAKKLGEMWNNTAADDKQPYEKKAAKLKEKYEKDIAAYRAKGKPDAAKKGVV
For B3, in assay [1], the “disruption … (average thickness, biomass)” value is given as “retained full anti-biofilm activity”; the “% reduction in average thickness (AT), mean±SE” value is recorded as 64%±0.08; the “% reduction in biomass (BM), mean±SE” value is 73%±0.02. Also, in assay [2], the “disruption of established UPEC biofilms” value is “retained full anti-biofilm activity”. Besides, the “disruption of established Bc biofilms” value in assay [3] is recorded as “retained full anti-biofilm activity”. Moreover, the “disruption of established NTHI biofilms” value in assay [4] is “retained full anti-biofilm activity”.

B4: A Box: HMGB1 domain A Box (1-89) with C-terminal linker, lacks B box and C tail (protein, UniProt P09429 1-89, looked up, fragment)
chain: MGKGDPKKPRGKMSSYAFFVQTCREEHKKKHPDASVNFSEFSKKCSERWKTMSAKEKGKFEDMAKADKARYEREMKTYIPPKGETKKKF
modifications: C-terminal linker
notes: HMGB1 domain A Box (1-89) with C-terminal linker, lacks B box and C tail
In the case of B4, in assay [1], the “disruption … (average thickness, biomass)” value is given as “no significant effect”. For the same molecule, the “disruption of established UPEC biofilms” value in assay [2] is reported as “no significant effect”. In assay [3], the “disruption of established Bc biofilms” value is “no significant effect”. Also, the “disruption of established NTHI biofilms” value in assay [4] is listed as “no significant effect”.
